Measurements from patent US20230203188A1.

Experiments:
[1] = molecular target: ED-tagged human SIRPα V1 receptor on Jurkat SIRPα-V1 signaling cells (human) (UniProt P78324); test: cell-based or functional assay
[2] = molecular target: ED-tagged human SIRPα V2 receptor on Jurkat SIRPα-V2 signaling cells (human) (UniProt P78324); test: cell-based or functional assay
[3] = molecular target: full-length cyno SIRPα (XP_015313155, clone P3HD10), on CHO cells (cynomolgus monkey); test: flow cytometry on CHO cells expressing the target
[4] = molecular target: full-length cyno SIRPβ1 (XP_005568598, clone PA2), on CHO cells (cynomolgus monkey); test: flow cytometry on CHO cells expressing the target

Chain of KWAR23 (antibody) (VH): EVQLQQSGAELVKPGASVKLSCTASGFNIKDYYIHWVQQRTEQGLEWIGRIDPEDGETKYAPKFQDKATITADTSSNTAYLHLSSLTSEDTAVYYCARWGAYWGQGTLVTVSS
Chain of KWAR23 (antibody) (VL): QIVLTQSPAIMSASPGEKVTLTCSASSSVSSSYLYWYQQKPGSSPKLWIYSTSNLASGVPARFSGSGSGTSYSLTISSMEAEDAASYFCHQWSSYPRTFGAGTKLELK
Chain of ED-tagged human SIRPα V2 receptor on Jurkat SIRPα-V2 signaling cells (human) (P78324 31-504): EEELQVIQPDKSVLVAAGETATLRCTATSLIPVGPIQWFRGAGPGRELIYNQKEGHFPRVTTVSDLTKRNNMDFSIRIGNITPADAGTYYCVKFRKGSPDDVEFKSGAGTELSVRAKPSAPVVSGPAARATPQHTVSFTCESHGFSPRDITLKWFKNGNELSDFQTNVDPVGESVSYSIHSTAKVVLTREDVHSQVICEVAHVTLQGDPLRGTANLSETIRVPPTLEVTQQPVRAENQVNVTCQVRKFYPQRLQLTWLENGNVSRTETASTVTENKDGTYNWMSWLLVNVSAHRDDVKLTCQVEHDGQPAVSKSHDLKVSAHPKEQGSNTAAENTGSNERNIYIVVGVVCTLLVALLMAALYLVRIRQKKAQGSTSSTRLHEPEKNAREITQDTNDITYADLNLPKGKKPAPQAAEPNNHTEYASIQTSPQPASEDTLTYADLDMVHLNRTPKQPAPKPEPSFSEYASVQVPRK
Chain of ED-tagged human SIRPα V1 receptor on Jurkat SIRPα-V1 signaling cells (human) (P78324 31-504): as above

IC50 of SIRPα signaling (SHP-1 recruitment, enzyme fragment complementation, Jurkat reporter cells) [1]: 0.04 nM
IC50 of SIRPα signaling (SHP-1 recruitment, enzyme fragment complementation, Jurkat reporter cells) [2]: 0.04 nM
EC50 [3]: 0.5 nM
EC50 [4]: 0.2 nM
Substance: KWAR23 (antibody)
